The target of one test is HLA-A*6802 (human). Kind of test: competition with 125I probe peptide for purified HLA.
A further test deals with HLA-B*0702 (human). Description: inhibition of 125I probe peptide, purified HLA.
A further test concerns the target HLA-B*3501 (human). Description: inhibition of 125I probe peptide, purified HLA.
The next test addresses HLA-B*5301 (human). Kind of test: inhibition of 125I probe peptide, purified HLA.
Another test addresses HLA-B*5401 (human). Kind of test: inhibition of 125I probe peptide, purified HLA.
Test [1] has as its target HLA-A*0202 (human). Description: inhibition of 125I probe peptide, purified HLA.
The next test concerns the target HLA-DRB1*0701 (human). Kind of test: inhibition of 125I probe peptide, purified HLA.
A further test addresses HLA-A*1101 (human). Kind of test: competition with 125I probe peptide for purified HLA.
The target of a further test is HLA-A*3101 (human). The test is described as above.
The target in the next test is HLA-A*6801 (human). The description is as above.
In another test the target is HLA-B*5101 (human). Description: inhibition of 125I probe peptide, purified HLA.
Test [2] concerns the target HLA-A*0203 (human). Kind of test: competition with 125I probe peptide for purified HLA.
For the next test, the target named is HLA-A*0206 (human). Described as above.
Test [3] has as its target HLA-DRB1*0301 (human). Kind of test: competition with 125I probe peptide, purified HLA.
In another test the target is HLA-DRB1*1302 (human). Kind of test: competition with 125I probe peptide, purified HLA.
Test [4] concerns the target HLA-DRB1*0301 (human). Description: competition with 125I probe peptide, purified HLA. The source holds these as a separate data set.
Test [5] concerns the target HLA-A*0202 (human). Description: competition with 125I probe peptide for purified HLA.
For a further test, the target named is HLA-A*0301 (human). Described as above.
In another test the target is HLA-A*3301 (human). The test is described as above.
For test [6], the target named is HLA-A*0201 (human). The test is described as above.
Test [7] concerns the target HLA-A*0203 (human). Description: inhibition of 125I probe peptide, purified HLA.
In test [8] the target is HLA-A*0201 (human). Description: inhibition of 125I probe peptide, purified HLA.

Like-named read-outs stand apart in the source and are kept apart here.

As to IMIGVLVGVA [CEA.691 (10-mer IMIGVLVGVA)], the IC50 (as a rule, the concentration at which inhibition is half-maximal) with HLA-A*6802 came to 1510 nM.
Take FPWQRLLLTI [CEA.13.F1I10]: the IC50 with HLA-B*0702 stood at 290 nM; in the test with HLA-B*3501 it was 2120 nM; in the test with HLA-B*5301 it was 78 nM; with HLA-B*5401 it was 4.2 nM.
Consider QLIGYVIGV [CEA.78.L2V9], for which the midpoint of inhibition in the test with HLA-A*0202 [1], the IC50, lay at 5.9 nM.
In the test with HLA-DRB1*0701, LWWVNNQSLPVSPRL [CEA.177] displayed an IC50 of 3050 nM.
Take FPGLSAGATI [CEA.680.F1, 10 AA]: the IC50 amounted to 212 nM with HLA-B*0702, 1480 nM in the test with HLA-B*5301 and 105 nM in the test with HLA-B*5401.
For RVLTLFNVTK [CEA.554.V42K10], the IC50 is 32 nM in the test with HLA-A*1101, 234 nM with HLA-A*3101 and 2350 nM with HLA-A*6801.
On to FPSAPPHRI [CEA.3.F1I9], for which the IC50 in the test with HLA-B*3501 is 3600 nM; in the test with HLA-B*5101, 15 nM; in the test with HLA-B*5301 it was 258 nM; with HLA-B*5401 it was 14 nM.
As to ALVGIMIGV [CEA.687L2], the IC50 with HLA-A*0203 [2] was 31 nM; with HLA-A*6802, 102 nM.
For the molecule YLCGIQNSV [CEA.569L2], the IC50 with HLA-A*0206 is 31 nM; with HLA-A*6802, 3480 nM.
As to RLQLSNDNRTLTLLS [CEA.368], the IC50 came to 938 nM in the test with HLA-DRB1*0301 [3], 729 nM with HLA-DRB1*1302 and 938 nM with HLA-DRB1*0301 [4].
Regarding FPQQHTQVI [CEA.632.F1I9], the IC50 in the test with HLA-B*0702 was determined as 3.4 nM; in the test with HLA-B*3501, 139 nM; with HLA-B*5401 it was 1.7 nM.
As for FPQQHTQVL [CEA.632.F1, 9 AA], the IC50 turned out to be 0.9 nM with HLA-B*0702, 183 nM in the test with HLA-B*5101 and 93 nM with HLA-B*5301.
For FPGVNLSL [CEA.428.F1], the IC50 with HLA-B*0702 was 19 nM; with HLA-B*3501, 277 nM; with HLA-B*5301 it was 95 nM; with HLA-B*5401, 115 nM.
As to FPPHRWCIPI [CEA.6.F1I10], the IC50 with HLA-B*5101 worked out at 423 nM; in the test with HLA-B*5301, 8460 nM.
QLIGYVIGV [CEA.78L2V9]: the IC50 in the test with HLA-A*0202 [5] was found to be 5.9 nM.
In the case of FPQQHTQI [CEA.632.F1, 8 AA], the IC50 with HLA-B*0702 is 220 nM; in the test with HLA-B*5301, 7750 nM.
For FPVSPRLQI [CEA.363.F1I9], the values for the IC50 with HLA-B*3501 and with HLA-B*5301 were 5540 nM and 216 nM, respectively.
As for FPVSPRLQL [CEA.363.F1], the IC50 with HLA-B*0702 is 0.7 nM; with HLA-B*3501, 600 nM; with HLA-B*5101, 82 nM; in the test with HLA-B*5301, 310 nM.
With FPNNNGTI [CEA.646.F1], the IC50 with HLA-B*0702 was 275 nM; with HLA-B*5101, 19 nM; with HLA-B*5301 it was 9300 nM; with HLA-B*5401, 313 nM.
Turning to TVSPSYTYYR [CEA.419.V2], the figures for the IC50 in the test with HLA-A*0301, with HLA-A*1101 and with HLA-A*3301 were 2340 nM, 3000 nM and 264 nM, respectively.
As for TVSPSYTYYK [CEA.419.V2K10], the IC50 came out at 43 nM with HLA-A*1101, 3670 nM with HLA-A*3101 and 6.7 nM in the test with HLA-A*6801.
As to FPAYSGREI [CEA.92.F1], the IC50 with HLA-B*0702 is 2.1 nM; in the test with HLA-B*3501, 7200 nM; with HLA-B*5101, 183 nM; in the test with HLA-B*5301, 664 nM.
With ILIGVLVGV [CEA.691L2], the IC50 with HLA-A*0201 [6] came to 22 nM; with HLA-A*0203 [2], 3.2 nM.
Regarding GIMIGVLVGV [CEA.690], the IC50 amounted to 64 nM with HLA-A*0201 [6]; 205 nM in the test with HLA-A*0202 [5]; 31 nM with HLA-A*0203 [2]; 142 nM with HLA-A*0206; 500 nM with HLA-A*6802.
As to FPQHLFGI [CEA.58.F1, 8 AA], the IC50 was 393 nM in the test with HLA-B*0702, 212 nM in the test with HLA-B*5101, 1070 nM with HLA-B*5301 and 0.4 nM with HLA-B*5401.
As to FPQHLFGYSI [CEA.58.F1I10], the IC50 with HLA-B*0702 was determined as 229 nM; with HLA-B*3501, 900 nM; in the test with HLA-B*5101 it was 204 nM.
FPWQRLLL [CEA.13.F1, 8 AA]: the IC50 with HLA-B*3501 was 1760 nM; with HLA-B*5101, 229 nM; with HLA-B*5301, 443 nM; in the test with HLA-B*5401 it was 71 nM.
As for FPQQHTQVLF [CEA.632.F1, 10 AA], the IC50 with HLA-B*3501 worked out at 51 nM; with HLA-B*5401 it was 556 nM.
On to FPQQHTQVLI [CEA.632.F1I10], for which the IC50 in the test with HLA-B*0702 was 134 nM; with HLA-B*3501 it was 809 nM; in the test with HLA-B*5401, 278 nM.
For the molecule FPGLSAGI [CEA.680.F1I8], the IC50 with HLA-B*3501 is 758 nM; with HLA-B*5101, 9 nM; in the test with HLA-B*5301, 332 nM.
As for RVLTLLSVTK [CEA.376.V2K10], the IC50 with HLA-A*3101 amounted to 164 nM; with HLA-A*6801, 5710 nM.
For the molecule FPHRWCIPI [CEA.7.F1I9], the IC50 with HLA-B*0702 worked out at 2.5 nM; in the test with HLA-B*3501, 257 nM; with HLA-B*5301 it was 135 nM; in the test with HLA-B*5401, 1.9 nM.
Take ILIGVLVGV [CEA.691.L2]: the IC50 was found to be 3.2 nM with HLA-A*0203 [7] and 22 nM in the test with HLA-A*0201 [8].
Take FPDAPTISPI [CEA.236.F1I10]: the IC50 in the test with HLA-B*0702 was 183 nM; in the test with HLA-B*3501, 1330 nM; with HLA-B*5301, 1020 nM; with HLA-B*5401 it was 278 nM.
Take FPDAPTISPL [CEA.236.F1]: the IC50 with HLA-B*3501 came to 327 nM; in the test with HLA-B*5101 it was 290 nM; with HLA-B*5301, 1940 nM; with HLA-B*5401, 714 nM.

The values are drawn from patent US20040146519A1 (published 2004).
